Experimental findings from article PMC8432352 are described below.

Holding throughout (assay): SDS-PAGE without heating
In assay [1] the target is Tail spike protein 2 (TSP2) of Salmonella phage S117 (Salmonella phage S117).
Assay [2] has as its target Tail spike protein 4 (TSP4) of Salmonella phage S117 (Salmonella phage S117).
Assay [3] concerns the target Tail spike protein 3 (TSP3) of Salmonella phage S117 (Salmonella phage S117).
The target in assay [4] is Tail spike protein 1 (TSP1) of Salmonella phage S117 (Salmonella phage S117).

Usually stoichiometry N stands for a count of units in the complex or per binding partner. Take “Tail spike protein 2 (TSP2) of Salmonella phage S117 (natural protein)”: the stoichiometry N in assay [1] worked out at 3.
On to “Tail spike protein 4 (TSP4) of Salmonella phage S117 (natural protein)”, for which the stoichiometry N in assay [2] was 3.
“Tail spike protein 3 (TSP3) of Salmonella phage S117 (natural protein)” yielded a stoichiometry N in assay [3] of 3.
In turn, “Tail spike protein 1 (TSP1) of Salmonella phage S117 (natural protein)” registered a stoichiometry N in assay [4] of 3.
